Results from patent publication US20200048333A1 (THOMAS JEFFERSON UNIVERSITY, published 2020).
Blank lines part the entries; values can stand above or below the binder they belong to. No end group written: not given here.

Key:
GDFYRA = target: T1, GDFYRA (also: biotinylated (position not given here)); assay: blot: antibody variant immobilized on nitrocellulose, biotinylated peptide bound, chemiluminescence
T1 construct: also called biotinylated α2Ct peptide GDFYRA
T1 peptide: GDFYRA

GYDGDF = target: T2, GYDGDF (also: biotinylated (position not given here)); assay: as above
T2 construct: also called biotinylated α2Ct peptide GYDGDF
T2 peptide: GYDGDF

[1] = target: T3, human procollagen I isolated from human dermal fibroblasts (human, UniProt P02452 23-1464; P08123 23-1366); assay: biosensor; procollagen I immobilized, Fab in solution
T3 construct: Native triple-helical heterotrimer; also called native α2Ct present in procollagen I
Procedure: (§1) In brief, human procollagen I isolated from human dermal fibroblasts and synthetic α2Ct were immobilized on separate channels of a biosensor. Subsequently, the full-length AFA or its Fab fragments, generated by digestion with papain, were added at various concentrations to a sensor to record the association and the dissociation phases. Data from the AFA binding interactions and the Fab binding interactions were then used to calculate the KD values. In a separate set of experiments, the binding interactions of the scFv variant consisting of the VL and VH domains connected via a peptide linker were also tested using a biosensor. In these assays, the scFv-procollagen I binding interactions were studied.

[2] = target: T4, synthetic full-length α2(I) C-telopeptide of human collagen I (α2Ct) (human); assay: biosensor; synthetic α2Ct immobilized, Fab in solution
T4 construct: also called synthetic α2Ct; full-length α2Ct
T4 peptide: GGGYDFGYDGDFYRA
Procedure: as §1

[3] = target: T3, human procollagen I isolated from human …; assay: biosensor; scFv-procollagen I
Procedure: as §1

[4] = target: T4, synthetic full-length α2(I) …; assay: biosensor; synthetic α2Ct immobilized, antibody in solution
Procedure: as §1

[5] = target: T3, human procollagen I isolated from human …; assay: biosensor; procollagen I immobilized, antibody in solution
Procedure: as §1

α2Ct fragment DFGYD = target: T5, α2Ct fragment DFGYD (human); assay: biosensor; AFA immobilized, peptide in solution
T5 construct: One of the overlapping peptides spanning the human α2Ct
T5 peptide: DFGYD
Procedure: (§2) Kinetics of the binding of the AFA to defined α2Ct epitopes. Employing a biosensor, we also analyzed the kinetics of the binding of the AFA with defined epitopes of the human α2Ct. For these assays we employed the AFA, control human IgG, and a set of overlapping peptides spanning the α2Ct (Table 3). In brief, the AFA and control human IgG were covalently immobilized on separate channels of a sensor chip. Subsequently, the binding of the α2Ct fragments to the immobilized antibodies was analyzed. Finally, the dissociation equilibrium constant (KD) values for each α2Ct fragment were calculated (Table 1).

α2Ct fragment DFYRA = target: T6, α2Ct fragment DFYRA (human); assay: biosensor; AFA immobilized, peptide in solution
T6 construct: One of the overlapping peptides spanning the human α2Ct
T6 peptide: DFYRA
Procedure: as §2

α2Ct fragment GYDFG = target: T7, α2Ct fragment GYDFG (human); assay: biosensor; AFA immobilized, peptide in solution
T7 construct: One of the overlapping peptides spanning the human α2Ct
T7 peptide: GYDFG
Procedure: as §2

α2Ct fragment GYDGD = target: T8, α2Ct fragment GYDGD (human); assay: biosensor; AFA immobilized, peptide in solution
T8 construct: One of the overlapping peptides spanning the human α2Ct
T8 peptide: GYDGD
Procedure: as §2

α2Ct fragment DGDFY = target: T9, α2Ct fragment DGDFY (human); assay: biosensor; AFA immobilized, peptide in solution
T9 construct: One of the overlapping peptides spanning the human α2Ct; also called A2_DGDFY
T9 peptide: DGDFY
Procedure: as §2

[6] = target: T4, synthetic full-length α2(I) …; assay: biosensor; table of α2Ct fragments binding to AFA
Procedure: as §2

T3 sequence (P02452 23-1464, chain 1 of 2): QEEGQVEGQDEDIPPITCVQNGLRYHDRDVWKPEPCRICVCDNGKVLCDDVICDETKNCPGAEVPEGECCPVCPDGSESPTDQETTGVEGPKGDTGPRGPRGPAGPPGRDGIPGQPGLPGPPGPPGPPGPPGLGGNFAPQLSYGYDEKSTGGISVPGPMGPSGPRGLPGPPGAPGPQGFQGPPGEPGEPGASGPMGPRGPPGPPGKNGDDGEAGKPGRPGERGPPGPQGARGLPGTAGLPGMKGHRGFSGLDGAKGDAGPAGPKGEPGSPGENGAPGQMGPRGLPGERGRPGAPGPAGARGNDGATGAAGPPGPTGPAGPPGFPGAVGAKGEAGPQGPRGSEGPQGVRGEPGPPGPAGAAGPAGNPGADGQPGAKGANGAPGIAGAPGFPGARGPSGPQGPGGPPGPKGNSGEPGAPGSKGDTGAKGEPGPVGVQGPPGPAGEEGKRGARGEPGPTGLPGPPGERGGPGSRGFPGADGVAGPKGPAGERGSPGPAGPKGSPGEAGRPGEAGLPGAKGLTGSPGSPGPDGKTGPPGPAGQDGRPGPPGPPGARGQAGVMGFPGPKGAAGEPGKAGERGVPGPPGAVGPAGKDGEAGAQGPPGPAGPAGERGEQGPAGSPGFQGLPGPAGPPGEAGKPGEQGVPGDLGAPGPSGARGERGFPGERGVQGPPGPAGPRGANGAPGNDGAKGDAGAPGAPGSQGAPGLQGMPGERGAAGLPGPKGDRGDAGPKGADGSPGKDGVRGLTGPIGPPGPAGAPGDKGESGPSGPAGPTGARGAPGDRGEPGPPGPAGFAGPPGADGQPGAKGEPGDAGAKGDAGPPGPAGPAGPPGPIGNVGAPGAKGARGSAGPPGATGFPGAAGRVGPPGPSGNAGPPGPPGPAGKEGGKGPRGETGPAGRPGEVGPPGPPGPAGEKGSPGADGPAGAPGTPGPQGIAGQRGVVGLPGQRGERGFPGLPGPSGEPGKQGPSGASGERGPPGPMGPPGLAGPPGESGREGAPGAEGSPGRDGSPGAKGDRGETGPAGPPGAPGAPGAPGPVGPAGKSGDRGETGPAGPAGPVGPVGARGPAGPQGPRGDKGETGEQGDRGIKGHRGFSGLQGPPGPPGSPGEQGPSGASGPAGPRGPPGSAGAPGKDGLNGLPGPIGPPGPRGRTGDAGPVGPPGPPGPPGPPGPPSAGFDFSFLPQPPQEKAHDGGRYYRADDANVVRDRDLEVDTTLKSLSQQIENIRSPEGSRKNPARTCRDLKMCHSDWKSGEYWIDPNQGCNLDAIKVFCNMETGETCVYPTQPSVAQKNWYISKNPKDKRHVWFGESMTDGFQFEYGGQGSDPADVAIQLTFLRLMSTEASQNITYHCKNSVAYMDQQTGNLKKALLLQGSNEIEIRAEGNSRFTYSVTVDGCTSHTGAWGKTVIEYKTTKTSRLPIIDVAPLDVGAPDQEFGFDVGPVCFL
T3 sequence (P08123 23-1366, chain 2 of 2): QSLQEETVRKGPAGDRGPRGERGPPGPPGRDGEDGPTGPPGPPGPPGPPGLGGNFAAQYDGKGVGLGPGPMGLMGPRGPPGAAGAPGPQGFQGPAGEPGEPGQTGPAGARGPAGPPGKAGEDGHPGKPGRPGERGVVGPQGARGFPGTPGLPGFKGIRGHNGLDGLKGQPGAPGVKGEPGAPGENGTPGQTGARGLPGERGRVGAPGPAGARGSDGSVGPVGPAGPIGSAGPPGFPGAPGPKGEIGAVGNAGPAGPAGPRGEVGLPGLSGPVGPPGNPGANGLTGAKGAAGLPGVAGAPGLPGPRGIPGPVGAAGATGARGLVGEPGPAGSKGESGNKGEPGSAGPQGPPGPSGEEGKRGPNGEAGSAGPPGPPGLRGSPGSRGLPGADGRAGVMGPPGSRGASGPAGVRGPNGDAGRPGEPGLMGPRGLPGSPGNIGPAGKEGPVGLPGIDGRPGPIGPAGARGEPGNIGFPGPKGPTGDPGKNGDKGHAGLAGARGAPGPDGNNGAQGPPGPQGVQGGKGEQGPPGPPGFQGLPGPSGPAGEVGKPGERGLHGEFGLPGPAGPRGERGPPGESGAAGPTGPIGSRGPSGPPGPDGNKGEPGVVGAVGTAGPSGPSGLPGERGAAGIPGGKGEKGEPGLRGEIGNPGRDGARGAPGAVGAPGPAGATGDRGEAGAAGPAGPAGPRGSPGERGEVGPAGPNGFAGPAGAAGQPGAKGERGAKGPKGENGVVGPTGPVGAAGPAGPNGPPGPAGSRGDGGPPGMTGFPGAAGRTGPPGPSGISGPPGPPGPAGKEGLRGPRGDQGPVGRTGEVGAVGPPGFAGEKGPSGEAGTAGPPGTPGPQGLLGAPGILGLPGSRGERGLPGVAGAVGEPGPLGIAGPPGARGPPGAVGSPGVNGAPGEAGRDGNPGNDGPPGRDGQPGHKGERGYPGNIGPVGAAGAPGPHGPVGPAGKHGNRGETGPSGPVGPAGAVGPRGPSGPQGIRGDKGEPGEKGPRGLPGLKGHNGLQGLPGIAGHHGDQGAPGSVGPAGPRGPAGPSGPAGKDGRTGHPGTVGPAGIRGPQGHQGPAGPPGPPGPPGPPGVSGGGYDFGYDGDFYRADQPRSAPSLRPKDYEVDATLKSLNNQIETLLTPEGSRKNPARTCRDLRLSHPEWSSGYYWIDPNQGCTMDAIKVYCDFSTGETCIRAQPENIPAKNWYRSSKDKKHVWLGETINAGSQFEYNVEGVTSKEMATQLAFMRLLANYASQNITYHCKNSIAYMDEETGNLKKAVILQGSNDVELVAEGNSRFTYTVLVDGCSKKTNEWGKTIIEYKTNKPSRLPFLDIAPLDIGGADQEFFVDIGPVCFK

B1: chimeric human IgG-type AFA (antibody, V domains shown)
VH: AQIQLVQSGPELKKPGETVKISCKASGYTFTDYPLHWVKQAPGKGLQWMAWINTETGEPTYADDFTGRFAFSLETSASTAYLQINNLKNEDTATYFCVRGYYYYWGQGTTLSVSS
VL: DIVMSQSPSSLAVSAGEKVTMSCKSSQSLLNSRTRKNNLAWYQQKPGQSPKLLIYWASTRESGVPDRFTGSGSGTDFTLTISSVQAEDLAVYYCKQSYNLWTFGGGTKLEIKR
notes: also called chIgG; chlgG
binding result (GDFYRA): binds | binding result (GYDGDF): binds

B2: Fab fragment of the AFA (Fab, V domains shown)
VH: AQIQLVQSGPELKKPGETVKISCKASGYTFTDYPLHWVKQAPGKGLQWMAWINTETGEPTYADDFTGRFAFSLETSASTAYLQINNLKNEDTATYFCVRGYYYYWGQGTTLSVSS
VL: DIVMSQSPSSLAVSAGEKVTMSCKSSQSLLNSRTRKNNLAWYQQKPGQSPKLLIYWASTRESGVPDRFTGSGSGTDFTLTISSVQAEDLAVYYCKQSYNLWTFGGGTKLEIKR
notes: also called Fab AFA antibody; Fab fragments of the AFA
Kd [1]: 0.268 µM | Kd [2]: 0.057 µM

B4: original mouse IgA-type AFA (antibody, V domains shown)
VH: AQIQLVQSGPELKKPGETVKISCKASGYTFTDYPLHWVKQAPGKGLQWMAWINTETGEPTYADDFTGRFAFSLETSASTAYLQINNLKNEDTATYFCVRGYYYYWGQGTTLSVSS
VL: DIVMSQSPSSLAVSAGEKVTMSCKSSQSLLNSRTRKNNLAWYQQKPGQSPKLLIYWASTRESGVPDRFTGSGSGTDFTLTISSVQAEDLAVYYCKQSYNLWTFGGGTKLEIKR
notes: Mouse IgA from a hybridoma, with heavy α chain and light κ chain; also called native mouse IgA-type AFA; original IgA-type anti-α2Ct antibody
binding result (GDFYRA): binds | binding result (GYDGDF): binds

Next, values leading:

Kd [3]: 0.075 µM
B3: scFv variant of the AFA consisting of the VL and VH domains connected via a peptide linker (scFv, V domains shown, not shown: small tags and cut ends)
VL: DIVMSQSPSSLAVSAGEKVTMSCKSSQSLLNSRTRKNNLAWYQQKPGQSPKLLIYWASTRESGVPDRFTGSGSGTDFTLTISSVQAEDLAVYYCKQSYNLWTFGGGTKLEIKR
V domain: AQIQLVQSGPELKKPGETVKISCKASGYTFTDYPLHWVKQAPGKGLQWMAWINTETGEPTYADDFTGRFAFSLETSASTAYLQINNLKNEDTATYFCVRGYYYYWGQGTTLSVSS
notes: The domain order VL-linker-VH follows the wording 'VL and VH domains connected via a peptide linker'; also called single chain antibody

Kd [4]: 0.021 nM | Kd [5]: 0.000663 µM | Kd (α2Ct fragment DFGYD): 6400 µM | Kd (α2Ct fragment DFYRA): 449 µM | Kd (α2Ct fragment GYDFG): 259 µM | Kd (α2Ct fragment GYDGD): 604 µM | Kd (α2Ct fragment DGDFY): 22.2 µM | Kd [6]: 0.021 nM
B5: full-length anti-fibrotic antibody (AFA), monoclonal anti-collagen I antibody against the α2(I) C-telopeptide (antibody, V domains shown)
VH: AQIQLVQSGPELKKPGETVKISCKASGYTFTDYPLHWVKQAPGKGLQWMAWINTETGEPTYADDFTGRFAFSLETSASTAYLQINNLKNEDTATYFCVRGYYYYWGQGTTLSVSS
VL: DIVMSQSPSSLAVSAGEKVTMSCKSSQSLLNSRTRKNNLAWYQQKPGQSPKLLIYWASTRESGVPDRFTGSGSGTDFTLTISSVQAEDLAVYYCKQSYNLWTFGGGTKLEIKR
notes: The control was human IgG; also called full-length AFA; Full-length AFA antibody
